# Results reported in PMC9482650, “Quantitative fragmentomics allow affinity mapping of interactomes” (Nature Communications, 2022).
# T1: HTRA4, P83105
# T1 sequence (P83105 378-476, limits assumed, looked up): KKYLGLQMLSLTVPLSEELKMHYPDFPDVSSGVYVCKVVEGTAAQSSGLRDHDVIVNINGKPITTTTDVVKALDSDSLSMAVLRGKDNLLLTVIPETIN
# T2: DFNB31_1, Q9P202
# T2 sequence (Q9P202 135-233, limits assumed, looked up): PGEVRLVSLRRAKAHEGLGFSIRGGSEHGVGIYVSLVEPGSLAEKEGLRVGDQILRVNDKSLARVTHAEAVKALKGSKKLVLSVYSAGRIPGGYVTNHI
# T3: TIAM2, Q8IVF5
# T3 sequence (Q8IVF5 885-986, limits assumed, looked up): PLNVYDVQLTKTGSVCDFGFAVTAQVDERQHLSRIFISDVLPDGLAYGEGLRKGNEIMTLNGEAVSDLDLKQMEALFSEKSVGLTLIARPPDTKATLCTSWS
# T4: MPDZ_10, O75970
# T4 sequence (O75970 1624-1722, limits assumed, looked up): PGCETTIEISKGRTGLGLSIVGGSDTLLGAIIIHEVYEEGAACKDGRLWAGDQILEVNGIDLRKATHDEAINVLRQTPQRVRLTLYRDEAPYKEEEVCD
# T5: LIN7B, Q9HAP6
# T5 sequence (Q9HAP6 88-185, limits assumed, looked up): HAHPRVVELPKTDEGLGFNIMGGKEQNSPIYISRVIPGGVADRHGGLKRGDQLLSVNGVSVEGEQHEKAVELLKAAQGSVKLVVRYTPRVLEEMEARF
# T6: RAPGEF6, Q8TEU7
# T6 sequence (Q8TEU7 525-625, limits assumed, looked up): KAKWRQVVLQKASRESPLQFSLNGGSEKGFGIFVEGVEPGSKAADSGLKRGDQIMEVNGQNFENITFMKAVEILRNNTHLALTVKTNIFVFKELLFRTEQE
# T7: DVL3, Q92997
# T7 sequence (Q92997 244-331, limits assumed, looked up): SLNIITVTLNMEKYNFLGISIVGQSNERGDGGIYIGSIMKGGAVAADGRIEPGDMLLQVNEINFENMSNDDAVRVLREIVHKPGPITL
# T8: SNTA1, Q13424
# T8 sequence (Q13424 82-180, limits assumed, looked up): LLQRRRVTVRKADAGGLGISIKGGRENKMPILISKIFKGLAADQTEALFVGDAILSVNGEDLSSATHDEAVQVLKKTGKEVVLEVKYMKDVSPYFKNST
# T9: DLG3_3, Q92796
# T9 sequence (Q92796 374-475, limits assumed, looked up): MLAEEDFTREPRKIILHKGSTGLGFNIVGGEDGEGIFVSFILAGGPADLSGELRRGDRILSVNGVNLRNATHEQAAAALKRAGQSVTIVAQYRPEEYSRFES
# T10: SNTG1, Q9NSN8
# T10 sequence (Q9NSN8 52-150, limits assumed, looked up): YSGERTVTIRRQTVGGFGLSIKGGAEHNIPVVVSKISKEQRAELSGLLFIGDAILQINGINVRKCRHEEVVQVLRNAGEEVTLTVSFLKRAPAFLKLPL
# T11: NHERF3_1, Q5T2W1
# T11 sequence (Q5T2W1 4-100, limits assumed, looked up): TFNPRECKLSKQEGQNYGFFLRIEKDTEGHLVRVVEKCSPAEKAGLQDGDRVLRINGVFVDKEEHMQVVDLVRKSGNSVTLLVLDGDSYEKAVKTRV
# T12: SNTG2, Q9NY99
# T12 sequence (Q9NY99 68-166, limits assumed, looked up): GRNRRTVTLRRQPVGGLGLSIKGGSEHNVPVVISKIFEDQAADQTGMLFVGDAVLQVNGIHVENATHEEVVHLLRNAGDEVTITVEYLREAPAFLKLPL
# T13: DFNB31_2, Q9P202
# T13 sequence (Q9P202 274-371, limits assumed, looked up): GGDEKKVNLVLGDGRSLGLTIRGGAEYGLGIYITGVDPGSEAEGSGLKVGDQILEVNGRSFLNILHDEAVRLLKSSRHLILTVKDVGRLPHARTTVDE
# Target: T1, HTRA4, P83105
# Test: holdup assay
# Set-up: key: below the threshold = too weak to quantify, mostly under pKd 3.1 to 4
# Details: plain residues with an end cap or a label only (N-terminal biotin on a linker: ado-ado)
row,pKd,Binder
1,3.85,"RDYTQSSSSL [GRM5, P41594]"

# Target: Inadl_8, Q8NI35
# Sequence (Q8NI35 1425-1530): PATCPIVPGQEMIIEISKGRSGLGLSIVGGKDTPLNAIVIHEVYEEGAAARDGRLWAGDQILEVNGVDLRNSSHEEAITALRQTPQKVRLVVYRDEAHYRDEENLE
# Test: holdup assay
# Set-up: key: below the threshold = too weak to quantify, mostly under pKd 3.1 to 4
# Details: plain residues with an end cap or a label only (N-terminal biotin on a linker: ado-ado)
row,pKd,Binder
1,below the threshold,"RDYTQSSSSL [GRM5, P41594]"

# Target: T2, DFNB31_1, Q9P202
# Test: holdup assay
# Set-up: key: below the threshold = too weak to quantify, mostly under pKd 3.1 to 4
# Details: plain residues with an end cap or a label only (N-terminal biotin on a linker: ado-ado)
row,pKd,Binder
1,below the threshold,"RDYTQSSSSL [GRM5, P41594]"

# Target: NOS1, P29475
# Sequence (P29475 9-101): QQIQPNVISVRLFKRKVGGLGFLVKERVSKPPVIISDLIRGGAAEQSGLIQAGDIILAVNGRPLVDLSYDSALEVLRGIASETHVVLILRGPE
# Test: holdup assay
# Set-up: key: below the threshold = too weak to quantify, mostly under pKd 3.1 to 4
# Details: plain residues with an end cap or a label only (N-terminal biotin on a linker: ado-ado)
row,pKd,Binder
1,below the threshold,"RDYTQSSSSL [GRM5, P41594]"

# Target: T3, TIAM2, Q8IVF5
# Test: holdup assay
# Set-up: key: below the threshold = too weak to quantify, mostly under pKd 3.1 to 4
# Details: plain residues with an end cap or a label only (N-terminal biotin on a linker: ado-ado)
row,pKd,Binder
1,3.8,"RDYTQSSSSL [GRM5, P41594]"

# Target: FRMPD2_3, Q68DX3
# Sequence (Q68DX3 1073-1166): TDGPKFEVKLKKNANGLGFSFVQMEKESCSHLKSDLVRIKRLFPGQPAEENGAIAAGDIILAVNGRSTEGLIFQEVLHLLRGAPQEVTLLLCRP
# Test: holdup assay
# Set-up: key: below the threshold = too weak to quantify, mostly under pKd 3.1 to 4
# Details: plain residues with an end cap or a label only (N-terminal biotin on a linker: ado-ado)
row,pKd,Binder
1,below the threshold,"RDYTQSSSSL [GRM5, P41594]"

# Target: DLG5_1, Q8TDM6
# Sequence (Q8TDM6 617-713): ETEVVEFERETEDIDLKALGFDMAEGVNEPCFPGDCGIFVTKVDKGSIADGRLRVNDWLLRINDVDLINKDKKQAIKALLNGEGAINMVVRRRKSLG
# Test: holdup assay
# Set-up: key: below the threshold = too weak to quantify, mostly under pKd 3.1 to 4
# Details: plain residues with an end cap or a label only (N-terminal biotin on a linker: ado-ado)
row,pKd,Binder
1,below the threshold,"RDYTQSSSSL [GRM5, P41594]"

# Target: SCRIB_1, Q14160
# Sequence (Q14160 718-814): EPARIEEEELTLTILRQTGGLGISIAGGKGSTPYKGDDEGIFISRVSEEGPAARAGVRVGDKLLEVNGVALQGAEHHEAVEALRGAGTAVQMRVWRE
# Test: holdup assay
# Set-up: key: below the threshold = too weak to quantify, mostly under pKd 3.1 to 4
# Details: plain residues with an end cap or a label only (N-terminal biotin on a linker: ado-ado)
row,pKd,Binder
1,below the threshold,"RDYTQSSSSL [GRM5, P41594]"

# Target: T4, MPDZ_10, O75970
# Test: holdup assay
# Set-up: key: below the threshold = too weak to quantify, mostly under pKd 3.1 to 4
# Details: plain residues with an end cap or a label only (N-terminal biotin on a linker: ado-ado)
row,pKd,Binder
1,below the threshold,"RDYTQSSSSL [GRM5, P41594]"

# Target: T5, LIN7B, Q9HAP6
# Test: holdup assay
# Set-up: key: below the threshold = too weak to quantify, mostly under pKd 3.1 to 4
# Details: plain residues with an end cap or a label only (N-terminal biotin on a linker: ado-ado)
row,pKd,Binder
1,3.52,"RDYTQSSSSL [GRM5, P41594]"

# Target: LIMK2, P53671
# Sequence (P53671 143-248): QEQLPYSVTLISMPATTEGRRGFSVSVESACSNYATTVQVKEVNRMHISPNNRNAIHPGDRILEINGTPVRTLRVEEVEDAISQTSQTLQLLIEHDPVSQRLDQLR
# Test: holdup assay
# Set-up: key: below the threshold = too weak to quantify, mostly under pKd 3.1 to 4
# Details: plain residues with an end cap or a label only (N-terminal biotin on a linker: ado-ado)
row,pKd,Binder
1,below the threshold,"RDYTQSSSSL [GRM5, P41594]"

# Target: IL16_4, Q14005
# Sequence (Q14005 1229-1329): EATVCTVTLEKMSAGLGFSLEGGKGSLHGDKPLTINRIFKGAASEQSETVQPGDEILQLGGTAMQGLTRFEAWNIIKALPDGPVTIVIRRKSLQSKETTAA
# Test: holdup assay
# Set-up: key: below the threshold = too weak to quantify, mostly under pKd 3.1 to 4
# Details: plain residues with an end cap or a label only (N-terminal biotin on a linker: ado-ado)
row,pKd,Binder
1,below the threshold,"RDYTQSSSSL [GRM5, P41594]"

# Target: PARD3_3, Q8TEW0
# Sequence (Q8TEW0 582-685): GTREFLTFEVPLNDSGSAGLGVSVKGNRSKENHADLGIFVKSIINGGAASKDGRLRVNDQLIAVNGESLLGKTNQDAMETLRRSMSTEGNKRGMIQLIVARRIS
# Test: holdup assay
# Set-up: key: below the threshold = too weak to quantify, mostly under pKd 3.1 to 4
# Details: plain residues with an end cap or a label only (N-terminal biotin on a linker: ado-ado)
row,pKd,Binder
1,below the threshold,"RDYTQSSSSL [GRM5, P41594]"

# Target: PDLIM1, O00151
# Sequence (O00151 1-87): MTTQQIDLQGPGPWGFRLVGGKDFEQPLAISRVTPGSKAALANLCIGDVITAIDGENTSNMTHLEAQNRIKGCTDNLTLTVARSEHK
# Test: holdup assay
# Set-up: key: below the threshold = too weak to quantify, mostly under pKd 3.1 to 4
# Details: plain residues with an end cap or a label only (N-terminal biotin on a linker: ado-ado)
row,pKd,Binder
1,below the threshold,"RDYTQSSSSL [GRM5, P41594]"

# Target: GRIP2_5, Q9C0E4
# Sequence (Q9C0E4 544-642): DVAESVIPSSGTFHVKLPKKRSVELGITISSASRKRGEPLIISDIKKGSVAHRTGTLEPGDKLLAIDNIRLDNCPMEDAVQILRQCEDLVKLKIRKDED
# Test: holdup assay
# Set-up: key: below the threshold = too weak to quantify, mostly under pKd 3.1 to 4
# Details: plain residues with an end cap or a label only (N-terminal biotin on a linker: ado-ado)
row,pKd,Binder
1,below the threshold,"RDYTQSSSSL [GRM5, P41594]"

# Target: T6, RAPGEF6, Q8TEU7
# Test: holdup assay
# Set-up: key: below the threshold = too weak to quantify, mostly under pKd 3.1 to 4
# Details: plain residues with an end cap or a label only (N-terminal biotin on a linker: ado-ado)
row,pKd,Binder
1,below the threshold,"RDYTQSSSSL [GRM5, P41594]"

# Target: T7, DVL3, Q92997
# Test: holdup assay
# Set-up: key: below the threshold = too weak to quantify, mostly under pKd 3.1 to 4
# Details: plain residues with an end cap or a label only (N-terminal biotin on a linker: ado-ado)
row,pKd,Binder
1,below the threshold,"RDYTQSSSSL [GRM5, P41594]"

# Target: GORASP2, Q9H8Y8
# Test: holdup assay
# Set-up: key: below the threshold = too weak to quantify, mostly under pKd 3.1 to 4
# Details: plain residues with an end cap or a label only (N-terminal biotin on a linker: ado-ado)
row,pKd,Binder
1,below the threshold,"RDYTQSSSSL [GRM5, P41594]"

# Target: T8, SNTA1, Q13424
# Test: holdup assay
# Set-up: key: below the threshold = too weak to quantify, mostly under pKd 3.1 to 4
# Details: plain residues with an end cap or a label only (N-terminal biotin on a linker: ado-ado)
row,pKd,Binder
1,below the threshold,"RDYTQSSSSL [GRM5, P41594]"

# Target: IL16_1, Q14005
# Sequence (Q14005 210-306): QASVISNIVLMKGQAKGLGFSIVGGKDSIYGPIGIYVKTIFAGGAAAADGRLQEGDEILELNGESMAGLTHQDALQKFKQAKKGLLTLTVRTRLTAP
# Test: holdup assay
# Set-up: key: below the threshold = too weak to quantify, mostly under pKd 3.1 to 4
# Details: plain residues with an end cap or a label only (N-terminal biotin on a linker: ado-ado)
row,pKd,Binder
1,below the threshold,"RDYTQSSSSL [GRM5, P41594]"

# Target: T9, DLG3_3, Q92796
# Test: holdup assay
# Set-up: key: below the threshold = too weak to quantify, mostly under pKd 3.1 to 4
# Details: plain residues with an end cap or a label only (N-terminal biotin on a linker: ado-ado)
row,pKd,Binder
1,below the threshold,"RDYTQSSSSL [GRM5, P41594]"

# Target: T10, SNTG1, Q9NSN8
# Test: holdup assay
# Set-up: key: below the threshold = too weak to quantify, mostly under pKd 3.1 to 4
# Details: plain residues with an end cap or a label only (N-terminal biotin on a linker: ado-ado)
row,pKd,Binder
1,below the threshold,"RDYTQSSSSL [GRM5, P41594]"

# Target: T11, NHERF3_1, Q5T2W1
# Test: holdup assay
# Set-up: key: below the threshold = too weak to quantify, mostly under pKd 3.1 to 4
# Details: plain residues with an end cap or a label only (N-terminal biotin on a linker: ado-ado)
row,pKd,Binder
1,5.02,"RDYTQSSSSL [GRM5, P41594]"

# Target: T12, SNTG2, Q9NY99
# Test: holdup assay
# Set-up: key: below the threshold = too weak to quantify, mostly under pKd 3.1 to 4
# Details: plain residues with an end cap or a label only (N-terminal biotin on a linker: ado-ado)
row,pKd,Binder
1,below the threshold,"RDYTQSSSSL [GRM5, P41594]"

# Target: T13, DFNB31_2, Q9P202
# Test: holdup assay
# Set-up: key: below the threshold = too weak to quantify, mostly under pKd 3.1 to 4
# Details: plain residues with an end cap or a label only (N-terminal biotin on a linker: ado-ado)
row,pKd,Binder
1,below the threshold,"RDYTQSSSSL [GRM5, P41594]"
